# Test results reported in PMC4395482 (The Journal of Cell Biology, 2015).
# B1: hSac2 domain of human Sac2 (aa 593–760) (domain or fragment, UniProt Q9Y2H2 593-760, looked up)
# chain: RSHQELISQLLQSYMKLLLPDDEKFHGGWALIDCDPSLIDATHRDVDVLLLLSNSAYYVAYYDDEVDKVNQYQRLSLENLEKIEIGPEPTLFGKPKFSCMRLHYRYKEASGYFHTLRAVMRNPEEDGKDTLQCIAEMLQITKQAMGSDLPIIEKKLERKSSKPHEDII
# modifications: selenomethionine (selenomethionine protein crystals)
# Target: the molecule itself
# Assay: crystal structure
protein,measurement,value
B1,stoichiometry N,2
